Patent US20200087363A1 (IMMATICS BIOTECHNOLOGIES, published 2020)

molecular target: T1, HLA-B*44:05 (human); assay: UV peptide exchange, anti-b2m ELISA
T1 construct: also called peptide-receptive MHC class I molecule
Method: Only peptide candidates that can effectively bind and stabilize the peptide-receptive MHC molecules prevent dissociation of the MHC complexes. To determine the yield of the exchange reaction, an ELISA was performed based on the detection of the light chain (β2m) of stabilized MHC complexes. The assay was performed as generally described in Rodenko et al. (Rodenko et al., 2006)
96 well MAXISorp plates (NUNC) were coated over night with 2 ug/ml streptavidin in PBS at room temperature, washed 4× and blocked for 1 h at 37° C. in 2% BSA containing blocking buffer. […] Peptide-MHC monomers of the UV-exchange reaction were diluted 100-fold in blocking buffer. Samples were incubated for 1 h at 37° C., washed four times, incubated with 2 ug/ml HRP conjugated anti-β2m for 1 h at 37° C., washed again and detected with TMB solution that is stopped with […]. Absorption was measured at 450 nm.

Binder	peptide exchange yield
HEHGLFNLY	50 to 75%
VEFPATRSL	50 to 75%
LEDQLKPMLEW	50 to 75%
QELLDIANYL	> 75%
TETDIDREY	20 to 50%
VEAATVSKW	50 to 75%
YEIRAEAL	20 to 50%
KQWEYNEKLAF	10 to 20%
SEQNIQRANLF	50 to 75%
AEDNMVTSY	50 to 75%
REVSVVDIL	> 75%
AELDHLASL	50 to 75%
AAEPLVGQRW	20 to 50%
TEFELLHQV	50 to 75%
AEQLRGFNA	50 to 75%
SEYQDGKEF	20 to 50%
AEHPDFSPCSF	50 to 75%
DQVTVFLHF	10 to 20%
EEFCFSVRF	50 to 75%
VELMFPLLL	50 to 75%
RLLPGKVVW	20 to 50%
ALTEDSIDDTF	10 to 20%
AEDLEKKYA	20 to 50%
VELEVPQL	20 to 50%

Binder	peptide exchange yield
DEDYTYLIL	20 to 50%
MEFQGPMPAGM	50 to 75%
KEFGIGDLVW	> 75%
CDAQIQYSY	50 to 75%
VESSQAFTW	50 to 75%
EESSSPVDEY	20 to 50%
QEWDPQKTEKY	50 to 75%
EEFIGKIGI	20 to 50%
LEYEAPKLY	20 to 50%
QEFPAHSL	50 to 75%
QEVAGYVLI	50 to 75%
VEEEISRHY	20 to 50%
HEIPQESL	10 to 20%
AEALVDGKWQEF	50 to 75%
DESADSEPHKY	10 to 20%
DEIDKLTGY	20 to 50%
VEQINISQDW	> 75%
YEMAIYKKY	> 75%
KESQLPTVMDF	50 to 75%
SESLPRAPL	50 to 75%
DELSVGRY	20 to 50%
EDNLIHKF	20 to 50%
IEVSSPITLQAL	20 to 50%
EDLAVHLY	10 to 20%

Binder	peptide exchange yield
EELALRIGL	50 to 75%
MELQVSSGF	50 to 75%
QEDKATQTL	> 75%
TENPKKFKI	50 to 75%
RELIKAIGL	50 to 75%
AEALVDGKW	50 to 75%
SEDLAVHL	> 75%
EEEDRDGHTW	50 to 75%
SEKEPGQQY	20 to 50%
TEEPQRLFY	10 to 20%
YENILNAI	20 to 50%
GEQPPEGQW	50 to 75%
GETCVRITY	50 to 75%
QEILHGAVRF	50 to 75%
SQYPHTHTF	50 to 75%
QEIGQKTSV	50 to 75%
TEHFLKKFF	50 to 75%
VEDDNYKLSL	50 to 75%
REDLVGPEV	50 to 75%
SEVEGLAFV	50 to 75%
KESMLKTTL	50 to 75%
IEVSSPITL	> 75%
GEPVTQPGSLL	50 to 75%
